This passage reports ND50 and IC50 results from patent US20090291081A1 (AbbVie / Abbott, published 2009).

Some results are limits rather than exact numbers.

Broadly, the IC50 is the point on the concentration scale where inhibition reaches its midpoint. The low end stands for inhibition by little substance, the high end for a need for much substance.

The target of experiment [1] is T1, human IL-1α (human, UniProt P01583 113-271).
T1 sequence (looked up): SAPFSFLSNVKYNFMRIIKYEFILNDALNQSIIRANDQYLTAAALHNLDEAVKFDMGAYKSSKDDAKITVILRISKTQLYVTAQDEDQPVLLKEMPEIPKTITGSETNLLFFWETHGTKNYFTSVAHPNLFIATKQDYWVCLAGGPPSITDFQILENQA
Kind of experiment: cell-based or functional assay.

In experiment [2] the target is T1, human IL-1α. Kind of experiment: Table 62 IC50; RBA presumed.
A further experiment addresses T2, human IL-1β (human, UniProt P01584 117-269).
T2 construct: antigen of the ABT2 dAbs; also called hIL-1β; IL-1 beta
Kind of experiment: IC50 column of Table 63; receptor binding assay presumed.

B1: ABT1-165 (other)
VL: DIQMTQSPSSLSASVGDRVTITCRASSSIRAGLAWYQQKPGKAPKLLIGPESGLQSGVPSRFSGSGSGTDFTLTISSLQPEDFATYYCGQGIDGPATFGQGTKVEIKR
notes: VK dAb
For the molecule B1, the ND50 in the experiment with human IL-1α [1] turned out to be 1000 nM. Moreover, in the experiment with human IL-1α [2], the half-inhibitory concentration (IC50) was above 1000 nM.

B2: ABT1-162 (other)
VL: DIQMTQSPSSLSASVGGRVTITCRASHYIRNRLHWYQQKPGKAPKLLIARGSALQSGVPSRFSGSGSGTDFTLTISSLQPEDFATYYCVQDGYLPPTFGQGTKVEIKR
notes: VK dAb
Regarding B2, the ND50 in the experiment with human IL-1α [1] amounted to 6.2 nM. In the experiment with human IL-1α [2], this molecule came in with an IC50 of 1000 nM.

B3: ABT2-65-1 (other)
VH: EVQLLESGGGLVQPGGSLRLSCAASGFTFEDYQMGWVRQAPGKGLEWVSSISAMGNRTYYADSVKGRFTISRDDSKNTLYLQMKSLRAEDTAVYYCAQNLVRTQSKMWMFDYWGQGTLVTVSS
notes: VH dAb
As for B3, the IC50 in the experiment with human IL-1β was 100 nM.

B4: ABT2-65-24 (other)
VH: EVQLLESGGGLVQPGGSLRLSCAASGFTFAAYQMGWVRQAPGKGLEWVSSISAMGNRTYYADSVKGRFTISRDDSKNTLYLQMNSLRAEDTAVYYCAQNLVRTQSKMWMFDYWGQGTLVTVSS
notes: VH dAb
With B4, the IC50 in the experiment with human IL-1β was 50 nM.

B5: ABT2-65-11 (other)
VH: EVQLLESGGGLVQPGGSLRLSCAASGFTFRAYPMGWVRQAPGKGLEWVSSISAMGNRTYYADSVKGRFTISRDDSKNTLYLQMNSLRAEDTAVYYCANNLVRTQSKMWMFDYWGQGTLVTVSS
notes: VH dAb
B5 had an IC50 with human IL-1β of 50 nM.

B6: ABT2-65-18 (other)
VH: EVQLLESGGGLVQPGGSLRLSCAASGFTFGDYQMGWVRQAPGKGLEWVSSISAMGNRTYYADSVKGRFTISRDDSKNTLYLQMNSLRAEDTAVYYCAENLVQWRIGAWMFDYWGQGTLVTVSS
notes: VH dAb
B6 showed an IC50 in the experiment with human IL-1β of 20 nM. This IC50 is about 2.5-fold lower than that of the molecule before.

B7: ABT2-65-23 (other)
VH: EVQLLESGGGLVQPGESLRLSCAASGFTFKVYPMGWVRQAPGKGLEWVSSISAMGNRTYYADSVKGRFTISRDDSKNTLYLQMNSLRAEDTAVYYCAKNLVRTQSKMWMFDYWGQGTLVTVSS
notes: VH dAb
B7 came in with a half-inhibitory concentration (IC50) with human IL-1β of 800 nM.

B8: ABT2-65-12 (other)
VH: EVQLLESGGGLVQPGGSLRLSCAASGFTFREYWMGWVRQAPGKGLEWVSSISAMGNRTYYADSVKGRFTISRDDSKNTLYLQMNSLRAEDTAVYYCANNLVRTQSKMWMFDYWGQGTLVTVSS
notes: VH dAb
In the experiment with human IL-1β, B8 displayed an IC50 of 20 nM. This IC50 lies about 40-fold lower than the previous one.

B9: ABT2-65-28 (other)
VH: EVQLLESGGGLVQPGGSLRLSCAASGFTFEDYQMGWVRQAPGKGLEWVSSISAMGNRTYYADSVKGRFTISRDDSKNTLYLQMNSLRAEDTAVYYCAQNLVQFRRSQWMFDYWGQGTLVTVSS
notes: VH dAb
As for B9, the IC50 with human IL-1β amounted to 5 nM.

B10: ABT2-65-26 (other)
VH: EVQLLESGGGLVQPGGSLRLSCAASGFTFEDYQMGWVRQAPGKGLEWVSSISAMGNRTYYADSVKGRFTISRDDSKNTLYLQMNSLRAEDTAVYYCAQNLVLVRSGYWMFDYWGQGTLVTVSS
notes: VH dAb
In the experiment with human IL-1β, B10 gave an IC50 of 20 nM.

B11: ABT2-65-16 (other)
VH: EVQLLESGGGLVQPGGSLRLSCAASGFTFEDYQMGWVRQAPGKGLEWVSSISAMGNRTYYADSVKGRFTISRDDSKNTLYLQMNSLRAEDTAVYYCAENLVKWRSAEWMFDYWGQGTLVTVSS
notes: VH dAb
In the experiment with human IL-1β, B11 registered a half-inhibitory concentration (IC50) of 200 nM.

B12: ABT2-65-27 (other)
VH: EVQLLESGGGLVQPGGSLRLSCAASGFTFEDYQMGWVRQAPGKGLEWVSSISAMGNRTYYADSVKGRFTISRDDSKNTLYLQMNSLRAEDTAVYYCAENLVRLWKGRWMFDYWGQGTLVTVSS
notes: VH dAb
In turn, B12 showed an IC50 with human IL-1β of 3.5 nM.

B13: ABT2-65-14 (other)
VH: EVQLLESGGGLVQPGGSLRLSCAAPGFTFPYYPMGWVRQAPGKGLEWVSSISAMGNRTYYADSVKGRFTISRDDSKNTLYLQMNSLRAEDTAVYYCAKNLVRTQSKMWMFDYWGQGTLVTVSS
notes: VH dAb
Molecule B13 had an IC50 with human IL-1β of 1000 nM.

B14: ABT2-65-15 (other)
VH: EVQLLESGGGLVQPGGSLRLSCAASGFTFGIYQMGWVRQAPGKGLEWVSSISAMGNRTYYADSVKGRFTISRDDSKNTLYLQMNSLRAEDTAVYYCAQNLVRTQSKMWMFDYWGQGTLVTVSS
notes: VH dAb
B14 gave an IC50 with human IL-1β of 100 nM.

B15: ABT2-65-25 (other)
VH: EVQLLESGGGLVQPGGSLRLSCAASGFTFEDYQMGWVRQAPGKGLEWVSSISAMGNRTYYADSVKGRFTISRDDSKNTLYLQMNSLRAEDTAVYYCAQNLVRYRSYYWMFDYWGQGTLVTVLS
notes: VH dAb
As to B15, the IC50 with human IL-1β worked out at 4 nM.

B16: ABT2-65-13 (other)
VH: EVQLLESGGGLVQPGGSLRLSCAASGFTFREYQMGWVRQAPGKGLEWVSSISAMGNRTYYADSVKGRFTISRDDSKNTLYLQMNSLRAEDTAVYYCANNLVRTQSKMWMFDYWGQGTLVTVSS
notes: VH dAb
On to B16, for which the IC50 with human IL-1β was found to be 20 nM.

B17: ABT2-65-9 (other)
VH: EVQLLESGGGLVHPGGSLRLSCAASGFTFRWYPMGWVRQAPGKGLEWVSSISAMGNRTYYADSVKGRFTISRDDSKNTLYLQMNSLRAEDTAVYYCAENLVRTQSKMWMFDYWGQGTLVTVSS
notes: VH dAb
On to B17, for which the IC50 in the experiment with human IL-1β is 100 nM.

B18: ABT2-65-22 (other)
VH: EVQLLESGGGLVQPGGSLRLSCAASGFTFLGYPMGWVRQAPGKGLEWVSSISAMGNRTYYADSVKGRFTISPDDSKNTLYLQMNSLRAEDTAVYYCAKNLVRTQSKMWMFDYWGQGTLVTVSS
notes: VH dAb
Molecule B18 returned an IC50 with human IL-1β of 100 nM.

B19: ABT2-65-2 (other)
VH: EVQLLESGGGLVQPGGSLRLSCAASGFTFSTYNMGWVRQAPGKGLEWVSSISAMGNRTYYADSVKGRFTISRDDSKNTLYLQMNSLRAEDTAVYYCANNLVRTQSKMWMFDYWGQGTLVTVSS
notes: VH dAb
As to B19, the IC50 with human IL-1β was 20 nM.

B20: ABT1-141-53 (other)
VL: DIQMTQSPSSLSASVGDRVTITCRASQWIQKQLAWYQLKPGKTPKLLIFSSSYLQSGVPSRFSGSGSGTDFTLTISSLQPEDFATYYCQQHLRVPMTFGQGTKVEIKR
notes: VK dAb
In the case of B20, the ND50 in the experiment with human IL-1α [1] turned out to be 10 nM. Also, the IC50 in the experiment with human IL-1α [2] was found to be 50 nM.

B21: ABT1-141-76 (other)
VL: DIQMTQSPSSLSASVGDRVTITCRANQWIQKQLAWYQQKPGKAPKLLIYSSSHLQSGVPSRFSGSGSGTDFTLTISSLQPEDFATYYCQQHLRVPMTFGQGTKVEIKR
notes: VK dAb
In turn, B21 yielded an ND50 in the experiment with human IL-1α [1] of 1 nM. Moreover, in the experiment with human IL-1α [2], inhibition was half-maximal at 1 nM (IC50).

B22: ABT1-141-78 (other)
VL: DIQMTQSPSSLSASVGDRVTITCRANQWIQKQLAWYQQKPGKAPKLLIYSSSHLQSGVPSRFSGSGYGTDFTLTISSLQPQDFATYYCQQHLRVPMTFGQGTKVEIKR
notes: VK dAb
The molecule B22 had an ND50 with human IL-1α [1] of 0.7 nM. The same molecule registered an IC50 with human IL-1α [2] of 3 nM.

B23: ABT1-141-79 (other)
VL: DIQMTQSPSSLSASVGDRVTITCRANQWIQKQLAWYQQKPGKAPKLLIFSSSHLQSGVPSRFSGSGSGTDFTLTISSLQPEDFATYYCQQHLRVPMTFGQGTKVEIKR
notes: VK dAb
The molecule B23 had an ND50 in the experiment with human IL-1α [1] of 2.4 nM. Moreover, the concentration for half-maximal inhibition (IC50) in the experiment with human IL-1α [2] is 3 nM.

B24: ABT1-141-70 (other)
VL: DIQMTQSPSSLSASVGDRVTITCRASQWIQKQLAWYQQKPGKAPKLLIYSSSHLQSGVPSRFSGSGYGTDFTLTISSLQPEDFATYYCQQHLRVPMTFGQGTKVEIKR
notes: VK dAb
Regarding B24, in the experiment with human IL-1α [1], the ND50 is 1 nM. This molecule yielded an IC50 with human IL-1α [2] of 1 nM.

B25: ABT1-141-80 (other)
VL: DIQMTQSPSSLSASVGDRVTITCRANQWIQKQLAWYQQKPGKAPKLLIYSSSHLQSGVPSRFSGSGYGTDFTLTISSLQPEDFATYYCQQHLRVPMTFGQGTKVEIKR
notes: VK dAb
Regarding B25, in the experiment with human IL-1α [1], the ND50 amounted to 1.7 nM. For the same molecule, inhibition in the experiment with human IL-1α [2] was half-maximal at 3 nM (IC50).

B26: ABT1-141-77 (other)
VL: DIQMTQSPSSLSASVGDRVTITCRANQWIQKQLAWYQQKPGKAPKLLIFSSSHLQSGVPSRFSGSGSGTDFTLTISSLQPQDFATYYCQQHLRVPMTFGQGTKVEIKR
notes: VK dAb
As to B26, in the experiment with human IL-1α [1], the ND50 amounted to 1 nM. In the experiment with human IL-1α [2], this molecule yielded an IC50 of 3 nM.

B27: ABT1-148 (other)
VL: DIQMTQSPSSLSASVGDRVTITCRASQSISSYLNWYQQKPGKAPKLLIGALSGLQSGVPSRFSGSGSGTDFTLTISSLQPEDFATYYCMQWYRHPSTFGQGTKVEIKR
notes: VK dAb
B27: in the experiment with human IL-1α [1], the ND50 was 100 nM. This molecule registered a concentration for half-maximal inhibition (IC50) in the experiment with human IL-1α [2] of 400 nM.

B28: ABT1-158 (other)
VL: DIQMTQSPSSLSASVGDRVTITCRASRSIGRGLNWYQQKPGKAPKLLIGGWSGLQSGVPSRFSGSGSGTDFTLTISSLQPEDFATYYCAQASPLPTFGQGTKVEIKR
notes: VK dAb
In the case of B28, in the experiment with human IL-1α [1], the ND50 is below 100 nM. This molecule came in with a concentration for half-maximal inhibition (IC50) with human IL-1α [2] of 2 nM.

B29: ABT2-63 (other)
VL: DIQMTQSPSSLSASVGDRVTITCRASQSIRVFLSWYQQKPGKAPKLLIYNASYLQSGVPSRFSGSGSGTDFTLTISSLQPEDFATYYCQQRALYPTTFGQGTKVEIKR
notes: VK dAb
B29: the IC50 with human IL-1β was determined as 1000 nM.

B30: ABT1-161 (other)
VL: DIQMTQSPSSLSASVGDRVTITCRASHAITGSLRWYQQKPGKAPKLLISGGSVLQSGVPSRFSGSGSGTDFTLTISSLQPEDFATYYCAQWLGGPMTFGQGTKVEIKR
notes: VK dAb
Turning to B30, the ND50 with human IL-1α [1] amounted to 8 nM. The molecule further returned an IC50 with human IL-1α [2] above 1000 nM.
